The data set can be described thus: protein stability index of a GFP-peptide fusion (GPS, HEK-293T) (PSI 1-6); higher = more stable. Particulars: c terminus: a fixed tail appended.

± gives the standard deviation.
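Note: 24-mer peptide tiles fused after GFP, lentivirally expressed, FACS-sorted into six equal bins by GFP/DsRed ratio, decoded by Illumina sequencing, PSI is the read-weighted mean bin number.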

In the case of PLTLQSQPKEPQLTCDSAQKCHSI [ZSCAN9], the protein stability index reads like this: (treatment: DMSO) 4.36 ± 0.29; (treatment: MLN4924 1 uM, 8 h) 4.39 ± 0.15.

With PLVKKHCDDSFTPQEKLWQQLRRG [CPOX], the protein stability index is, setting by setting: (treatment: DMSO) 3.49 ± 0.21; (treatment: MLN4924 1 uM, 8 h) 3.57 ± 0.2.

PLWQCYLGRFNDINVPIRLECVKF [PDS5B]: the protein stability index (treatment: DMSO) is 2.46 ± 0.54 and the protein stability index (treatment: MLN4924 1 uM, 8 h) came out at 2.35 ± 0.28.

For PNFVKDLEEDLYELFKKDPGFDRG [PI4K2A], the protein stability index runs as follows: (treatment: DMSO) 3.79 ± 0.081; (treatment: MLN4924 1 uM, 8 h) 3.72 ± 0.32.

For the sequence PNVLCSMSGKSPVESSLNVKTKKN [FBXO34], the protein stability index is, setting by setting: (treatment: DMSO) 4.84 ± 0.29; (treatment: MLN4924 1 uM, 8 h) 4.9 ± 0.1.

In the case of PPATLGEGSADTEDRKLPAPGADV [EHMT1], the protein stability index reads like this: (treatment: DMSO) 5.47 ± 0.3; (treatment: MLN4924 1 uM, 8 h) 5.58 ± 0.13.

As to PPLWAASAAGHLKVVQSLLNHGAS [FEM1C], the protein stability index runs as follows: (treatment: DMSO) 2.58 ± 0.43; (treatment: MLN4924 1 uM, 8 h) 2.76 ± 0.23.

As for PPQPGCPAFIIVKLSPLRDRLVVT [ZSWIM9], the protein stability index was found to be 2.93 ± 1 (treatment: DMSO) and 2.99 ± 0.94 (treatment: MLN4924 1 uM, 8 h).

For PPTPGRPSLGPALSTGPRGLCAMP [VENTX], the protein stability index was found to be 3.86 ± 0.37 (treatment: DMSO) and 3.73 ± 0.26 (treatment: MLN4924 1 uM, 8 h).

With PQLKKESELPFVPNYLANPAFPFI [ANKRD40], the protein stability index (treatment: DMSO) came to 2.82 ± 0.34 and the protein stability index (treatment: MLN4924 1 uM, 8 h) worked out at 2.87 ± 0.085.

Take PRESTDFSSSSQEAFAASAVGSGE [ZBTB22]: the protein stability index is, setting by setting: (treatment: DMSO) 5.22 ± 0.26; (treatment: MLN4924 1 uM, 8 h) 5.31 ± 0.27.

With PRIEASKVLLCHGELRSKSGHKLY [NET1], the protein stability index by setting is: (treatment: DMSO) 2.64 ± 0.46; (treatment: MLN4924 1 uM, 8 h) 2.81 ± 0.34.

Where the note is “treatment: DMSO”, PRLSQLSVTDVTTSSLRLNWEAPP [TNXB] gave a protein stability index of 3.5 ± 0.4.

Take PRRKKLKSTSKYIYQTLFLNGENS [GMCL1]: the protein stability index is, setting by setting: (treatment: DMSO) 2.69 ± 0.17; (treatment: MLN4924 1 uM, 8 h) 2.79 ± 0.16.

Regarding PSITRKRRYVASVSLHDRIYVIGG [KLHL12], the protein stability index runs as follows: (treatment: DMSO) 2.24 ± 0.26; (treatment: MLN4924 1 uM, 8 h) 2.13 ± 0.4.

On to PSLEAGNPAPAAPCPLGEPKTQAC [MYCL], for which the protein stability index runs as follows: (treatment: DMSO) 5.26 ± 0.14; (treatment: MLN4924 1 uM, 8 h) 5.32 ± 0.11.

PSRVHASEVESAVWYVKKFGRYLE [FBXO39] gave a protein stability index (treatment: DMSO) of 2.42 ± 0.16 and a protein stability index (treatment: MLN4924 1 uM, 8 h) of 2.27 ± 0.5.

Take PSSGPVTPQPTALTFAKSSWARQE [AUP1]: the protein stability index reads like this: (treatment: DMSO) 4.2 ± 0.29; (treatment: MLN4924 1 uM, 8 h) 4.27 ± 0.24.

For the sequence PTGPRRGRDELGGGRRPGTSPALL [CDKN1A], the protein stability index was found to be 4.624 ± 0.031 (treatment: DMSO) and 4.53 ± 0.061 (treatment: MLN4924 1 uM, 8 h).

Turning to PTPPGQYFYPRGGGSGGGAGGAGG [JUNB], the protein stability index stood at 4.81 ± 0.15 (treatment: DMSO) and 4.5 ± 0.16 (treatment: MLN4924 1 uM, 8 h).

As for PTPQVDELDILPIHPPSGNSDLDP [BTBD10], the protein stability index was 5.54 ± 0.097 (treatment: DMSO) and 5.39 ± 0.35 (treatment: MLN4924 1 uM, 8 h).

As for PVDLNKILEDMRCQYEALVENNRR [KRT36], the protein stability index is, setting by setting: (treatment: DMSO) 3.31 ± 0.3; (treatment: MLN4924 1 uM, 8 h) 3.23 ± 0.36.

On to PVHTTILNPHIHLMGDESACIAYI [CAMK2A], for which the protein stability index (treatment: DMSO) was 2.42 ± 0.17 and the protein stability index (treatment: MLN4924 1 uM, 8 h) came out at 2.42 ± 0.082.

In turn, PVLSGAELEKAHLALIDYLTQKRS [VPS39] came in with a protein stability index (treatment: DMSO) of 3.37 ± 0.26 and a protein stability index (treatment: MLN4924 1 uM, 8 h) of 3.38 ± 0.27.

On to PWLRQDPMPLAPTRSHLWEAAQVV [TRIB3], for which the protein stability index reads like this: (treatment: DMSO) 2.5 ± 0.18; (treatment: MLN4924 1 uM, 8 h) 2.27 ± 0.29.

In the case of PWNCILLTKDEAAAHLKLTSIEEG [IQUB], the protein stability index was determined as 3.12 ± 0.1 (treatment: DMSO) and 3.44 ± 0.07 (treatment: MLN4924 1 uM, 8 h).

With PYKCVQPDCGKAFVSRYKLMRHMA [PLAGL1], the protein stability index was determined as 2.23 ± 0.31 (treatment: DMSO) and 2.08 ± 0.21 (treatment: MLN4924 1 uM, 8 h).

For the sequence PYSKTLVLQTSEGKALQQYPSERE [TRIM9], the protein stability index by setting is: (treatment: DMSO) 4.63 ± 0.088; (treatment: MLN4924 1 uM, 8 h) 4.66 ± 0.21.

Regarding QASAAPAAPLPERNSLSAIFNNVM [SLC29A1], the protein stability index worked out at 3.55 ± 0.094 (treatment: DMSO) and 3.5 ± 0.14 (treatment: MLN4924 1 uM, 8 h).

For the origin of these results see the supplement of paper PMC10567573.
